Molecular target: biotinylated bovine serum albumin (bovine) (UniProt P02769)
Assay: broad-band Mach-Zehnder interferometry (label-free, TE and TM phase shifts); multiplexed chip: mouse IgG (WGs 1, 4, 7, 10), biotinylated-BSA (WGs 2, 5, 8) and BSA blanks spotted on the sensing arms, blocked with BSA; 1 nM streptavidin in assay buffer (50 mM phosphate, pH 7.4, 10 g/L BSA) for 20 min, then 10 nM anti-mouse IgG antibody for 20 min; 20 ul/min

UniProt P02769, sequence (P02769 25-607): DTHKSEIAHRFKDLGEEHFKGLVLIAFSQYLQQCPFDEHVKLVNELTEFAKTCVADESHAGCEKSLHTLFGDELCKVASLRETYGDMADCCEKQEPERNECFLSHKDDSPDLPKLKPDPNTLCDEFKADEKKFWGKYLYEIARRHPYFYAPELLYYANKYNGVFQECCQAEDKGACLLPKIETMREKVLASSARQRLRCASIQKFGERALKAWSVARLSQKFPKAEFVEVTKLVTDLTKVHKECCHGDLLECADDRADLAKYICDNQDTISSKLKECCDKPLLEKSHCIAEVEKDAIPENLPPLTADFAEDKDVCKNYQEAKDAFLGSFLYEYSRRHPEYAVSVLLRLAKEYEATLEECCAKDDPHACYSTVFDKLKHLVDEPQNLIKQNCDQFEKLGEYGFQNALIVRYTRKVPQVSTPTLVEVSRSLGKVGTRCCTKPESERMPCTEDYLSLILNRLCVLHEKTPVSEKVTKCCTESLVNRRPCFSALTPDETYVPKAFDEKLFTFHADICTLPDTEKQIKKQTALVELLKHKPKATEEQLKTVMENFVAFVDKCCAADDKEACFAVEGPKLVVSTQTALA

## Immunopure Streptavidin (from UniProt P22629 25-183) (natural protein)
  TE phase shift after 20 min with 1 nM streptavidin (interferometer 2): 4.48 radians
  TE phase shift after 20 min with 1 nM streptavidin (interferometer 5): 4.56 radians
  TE phase shift after 20 min with 1 nM streptavidin (interferometer 8): 4.25 radians
  TM phase shift after 20 min with 1 nM streptavidin (interferometer 2): 6.02 radians
  TM phase shift after 20 min with 1 nM streptavidin (interferometer 5): 6.87 radians
  TM phase shift after 20 min with 1 nM streptavidin (interferometer 8): 5.73 radians
